From the nanobody polyreactivity screen of Harvey et al. (2022)

Experiment: yeast display, Sf9 membrane polyspecificity reagent, FACS + sequencing; frameworks hold sequencing errors
In short: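 Nanobodies came from a synthetic yeast display library in Saccharomyces cerevisiae BJ5465, induced with galactose for 36–48 hours and stained for 1 hour at 4 °C with 10% biotinylated, detergent-solubilized Sf9 membrane reagent. Cells were enriched on streptavidin microbeads and then FACS-sorted, with low and high (top ~1%) gates set on anti-HA fluorescence for expression and streptavidin fluorescence for reagent binding. Each polyreactivity label reflects the gate a clone came from. Genes were amplified by colony PCR, sequenced by MiSeq 2 × 250 and filtered by CDR length.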

Row | Sequence | polyreactivity (PSR sort gate)
1 | QVQLVESGGGLVQAGGSLRLSCAASGRIFIYYTMGWYRPAPGKERELVASITWSGGRTYYADSVKGRFTISRDNAKNTVYLQMNSLKPEDNAVYYCNAGYSIGLVAYGYWGQGTQVTVSS | low polyreactivity
2 | QVQLVESGGGLVQAGGSLRLSCAASGRIFKAYAMGWYRQAPGKERELVAAITSTGSTYYADSVKGRFTISRDNAKNTVYLQMNSLKPEDTAVYSCARRPSYYQGDYWGQGTQVTVSS | high polyreactivity
3 | QVQLVESGGGLVQAGGSLRLSCAASGRIFKDHAMGWYRQAPGKERELVAGITSIGDNTYYADSVKGRFTISRDNAKNTVYLQMNSLKPEHTAVYYCNADYGYDSVVEYDYWGQGTQVTVSS | low polyreactivity
4 | QVQLVESGGGLVQAGGSLRLSCAASGRIFKFYAMGWYRQAPGKERELVAAISRTGGNTYYADSVKGRFTISRDNAKNTVYLQMNSLKPEDTAVYYCAAETYARSSSSKYEYWGQGTQVTVSS | high polyreactivity
5 | QVQLVESGGGLVQAGGSLRLSCAASGRIFKGYAMGWYRQAPGKERELVAAITWRGGTTYYADSVKGRFTISRDNAKNTVYLQMNSLKPEDTAVYYCAVSGKTAHSPQRYYYWGQGTQVTVSS | high polyreactivity
6 | QVQLVESGGGLVQAGGSLRLSCAASGRIFKIYAMGWYRQAPGKERELVAAISRGGRTYYADSVKGRFTISRDNAKNTVYLQMNSLKPEDTAVYYCAADLLISPEFYYWGQGTQVTVSS | high polyreactivity
7 | QVQLVESGGGLVQAGGSLRLSCAASGRIFKKNAMGWYRQAPGKERELVAAISYRGGSTYYADSVKGRFTISRDNAKNTVYLQMNSLKPEDTAVYYCNVGSRGGWDASDYDYWGQGTQVTVSS | high polyreactivity
8 | QVQLVESGGGLVQAGGSLRLSCAASGRIFKLYAMGWDRQAPGKERELVAAISKSGGNTYADSVKGRFTISRDNAKNTVYLQMNSLKPEDTAVYYCAATVQSTSDPFDYWGQGTQVTVSS | low polyreactivity
9 | QVQLVESGGGLVQAGGSLRLSCAASGRIFKLYAMGWYRQAPGKERELGAAISTSAGSTNYADSEKGRFTISRDNAKNTVYLQMNSLKPEDPAVYYCAVAGVSTYYTYYYWGQGTQVTVSS | low polyreactivity
10 | QVQLVESGGGLVQAGGSLRLSCAASGRIFKLYAMGWYRQAPGKERELVAAISTSAGSTNYADSVKGRFTISRDNEKNTVYLQMNSLKPEDTAVYYCAVAGVSTYYTYYYWGQGTQVTVSS | low polyreactivity
11 | QVQLVESGGGLVQAGGSLRLSCAASGRIFKQYALGWYRQAPGKERELVAAISVRGGITYYADSVKGRFTISRDNAKNTVYLQMNSLKPEDTAVYYCAKRSYRTHTYDYWGQGTQVTVSS | low polyreactivity
12 | QVQLVESGGGLVQAGGSLRLSCAASGRIFKQYAMGWYRQAPGKERELVAAISWDGGSTYYADSVKGRFTISRDNAKNTVYLQMNSLKPEDTAVYDCNKDLYYAYDYWGQGTQVTVSS | low polyreactivity
13 | QVQLVESGGGLVQAGGSLRLSCAASGRIFKRNAMGWYRQAPGKERELVAAISSGTSTNYADSVKGRFTISRDNAKNTVYLQMNSLKPEDTAVYYCAVRPVDYRGYYYWGQGTQVTVSS | high polyreactivity
14 | QVQLVESGGGLVQAGGSLRLSCAASGRIFKRYTMGWYRQAPGQERELVAGITFSGGSTYYADSVKGRFTISRDNAKNTVYLQMNSLKPEDTAVYYCNARVPPQGWGPWKAFDYWGQGTQVTVSS | low polyreactivity
15 | QVQLVESGGGLVQAGGSLRLSCAASGRIFKSYAMGWYRPAPGKERELVAAINWSGGSTYYADSVKGRFTISRDTAKNTVYLQMNSLKPEDTAVYYCNALYAVRSYDSWGQGTQVTVSS | high polyreactivity
16 | QVQLVESGGGLVQAGGSLRLSCAASGRIFKTNAMGWYRQAPGKERELVAGITSGGGTNYADSVKGRFTISRDNAKNTVYLQMNSLKPEDTAVYYCAKDRNFRHIKYSWGGYPYTMDYWGQGTQVTVSS | low polyreactivity

Row | Sequence | polyreactivity (PSR sort gate)
17 | QVQLVESGGGLVQAGGSLRLSCAASGRIFKTYAMGWYRQAPGKERELVAAITSGGSTYYADSVKGRFTISRDNAKNTVYLQMNSLKPEDTAVYYCNRVYRYVYSWAYNYWGQGTQVTVSS | high polyreactivity
18 | QVQLVESGGGLVQAGGSLRLSCAASGRIFKTYAMGWYRQAPGKERELVAAITWDVVRTYYADSVKGRFTISRDNAKNTVYLQMNSLKPEETAVYYCAAEGIRRSQRFNYWGQGTQVTVSS | high polyreactivity
19 | QVQLVESGGGLVQAGGSLRLSCAASGRIFKVYTMGWYRQAPGKERELVATITRSGTSTYYADSVKGRFTISRDNAKNTVYLQMNSLKPEDTAVYYCARRVGYKFSYDYWGQGTQVTVSS | high polyreactivity
20 | QVQLVESGGGLVQAGGSLRLSCAASGRIFKWYAMGWYRQAPGKEREFVAGIRWGGGRTHYADSVKGRFTISRDNAKNTVYLQMNSLKPEDTAVYYCAATSIGRYKSRLDYWGQGTQVTVSS | high polyreactivity
21 | QVQLVESGGGLVQAGGSLRLSCAASGRIFKYNAKGWYRQAPGKERELVAAISGTGGSTYYADSVKGRFTISRDNAKNTVYLQMNSLKPEDTAVYYCNRRYYGHSTWKYDYWAQGTQVTVSS | high polyreactivity
22 | QVQLVESGGGLVQAGGSLRLSCAASGRIFKYYAMGWYREAPGKERELVAAIDWRGDSTYYADSVKGRFTISRDHAKNTVYLQMNSLKPEDTAVYYCAVVGTRGYHGYDSWGQGTQVTVSS | low polyreactivity
23 | QVQLVESGGGLVQAGGSLRLSCAASGRIFKYYAMGWYRPAPGKERELVAAISRSSGRTYYADSVKGRFTISRDNAKNTVYFQMNSLKPEDTAVYYCNALPSTVYLTYDYWGQGTQVTVSS | high polyreactivity
24 | QVQLVESGGGLVQAGGSLRLSCAASGRIFKYYAMGWYRQAPGKERELVAAISQNGGRTYYADSVKGRFTISRDNAKNTVYLQMNSLKPEDTAVYYCAAGWRSYAGYYQGEFGYWGQGTQVTVSS | high polyreactivity
25 | QVQLVESGGGLVQAGGSLRLSCAASGRIFKYYAMGWYRQAPGKERELVAAISRSGGRTYYADSVKGRFTISRDNAKNTVYLQMNSLKPEDTAVYYCNARVYSGHNYWGQGTQVTVSS | high polyreactivity
26 | QVQLVESGGGLVQAGGSLRLSCAASGRIFKYYAMGWYRQAPGKERELVAAITSSGVSTYADSVKGRFTISRDNAKNTVYLQMISLKPEDTAVYYCADDYVREGLGYDYWGQGTQVTVSS | low polyreactivity
27 | QVQLVESGGGLVQAGGSLRLSCAASGRIFKYYAMGWYRQAPGKERELVAAITYSGGSTYADSVKGRFTISRDNAKNTVYLQMNSLKPEDTAVYYCAVARRSRVVSSIRGDYWGQGTQVTVSS | high polyreactivity
28 | QVQLVESGGGLVQAGGSLRLSCAASGRIFKYYGMGWYRQAPGKERELVAAISRGSSTNYADSVKGRFTISRDNAKNTVYLQMNSLKPEDTAVYYCAVSLRRGGSGYAYDYWGQGTQVTVSS | high polyreactivity
29 | QVQLVESGGGLVQAGGSLRLSCAASGRIFKYYGMGWYRQAPGKESELVAAITRGDSTNYADSVKGRFTISRDNAKNTVYLQMNSLKPEDTAVYYCNVGTRRGYDYWGQGTQVTVSS | high polyreactivity
30 | QVQLVESGGGLVQAGGSLRLSCAASGRIFKYYTMGWYRQAPGKERELVAAISRDDSTNYADSVKGRFTISRDNAKNTVYLQMNSLKPEDTAVYYCAKGYHQYAGFYYWGLGTQVTVSS | high polyreactivity
31 | QVQLVESGGGLVQAGGSLRLSCAASGRIFKYYTMGWYRQATGKEREFVASITGSGGTTYYADSVKGRFTISRDNAKNTVYLQMNSLKPEDTAVYYCNAYSYPYWYRYYYWGQGTQVTVSS | high polyreactivity
32 | QVQLVESGGGLVQAGGSLRLSCAASGRIFKYYVMGWYRQAPGKERELVATISRRDASTYYADSVKGRFTISRDNAKNTVYLQMNSLKPEDTAVYYCNADRARSERIKYDYWGQGTQGTVSS | high polyreactivity
